Where a chain is given by its changes, count along the chain named.
T1: GFP-9S library array, motif 4 ND N98C;D124P (synthetic construct, N98C;D124P)
T1 chain: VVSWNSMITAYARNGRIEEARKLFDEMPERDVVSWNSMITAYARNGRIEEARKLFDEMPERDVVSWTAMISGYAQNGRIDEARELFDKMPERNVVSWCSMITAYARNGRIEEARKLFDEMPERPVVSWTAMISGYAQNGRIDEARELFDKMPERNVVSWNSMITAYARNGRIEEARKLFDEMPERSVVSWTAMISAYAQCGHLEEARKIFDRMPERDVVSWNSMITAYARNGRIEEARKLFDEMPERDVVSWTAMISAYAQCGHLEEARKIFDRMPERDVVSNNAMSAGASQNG

T2: GFP-9S library array, motif 4 ND N98M;D124H (synthetic construct, N98M;D124H)
T2 chain: T1 chain with C98M, P124H

T3: GFP-9S library array, motif 4 ND N98Q;D124G (synthetic construct, N98Q;D124G)
T3 chain: T1 chain with C98Q, P124G

T4: GFP-9S library array, motif 4 ND N98G;D124I (synthetic construct, N98G;D124I)
T4 chain: T1 chain with C98G, P124I

T5: GFP-9S library array, motif 4 ND N98T;D124C (synthetic construct, N98T;D124C)
T5 chain: T1 chain with C98T, P124C

B1: Cy5-rpoA (ssRNA)
RNA: AUUACACGUGA
B2: Cy5-rpoA-G (ssRNA)
RNA: AUUAGACGUGA
B3: IR-rpoA-A (ssRNA)
RNA: AUUAAACGUGA
B4: IR-rpoA-U (ssRNA)
RNA: AUUAUACGUGA

Experiments:
Experiment in all cases: high-throughput RNA pulldown from lysate on Ni-NTA beads; HRP: 50 mM Tris pH 8, 150 mM NaCl, 1 mM beta-mercaptoethanol, 50 ug/ml BSA, 3 ug/ml yeast RNA, 0.5% heparin; ITC and FP: Tris pH 8, 200 mM KCl, 5% glycerol; MST: 50 mM Tris pH 8, 200 mM NaCl, 1 mM DTT, BSA, heparin, 0.05% Tween 20
Conditions in all cases: tags: N-terminal His-eGFP
[1] = target: T1, GFP-9S library array, motif 4 ND …
[2] = target: T2, GFP-9S library array, motif 4 ND …
[3] = target: T3, GFP-9S library array, motif 4 ND …
[4] = target: T4, GFP-9S library array, motif 4 ND …
[5] = target: T5, GFP-9S library array, motif 4 ND …

Binder	Kd ([1]; label: 5' Cy5)	Kd ([2]; label: 5' Cy5)	Kd ([3]; label: 5' Cy5)	Kd ([4]; label: 5' Cy5)	Kd ([5]; label: 5' Cy5)	Kd ([1]; label: 5' IRDye 800CW)	Kd ([2]; label: 5' IRDye 800CW)	Kd ([3]; label: 5' IRDye 800CW)	Kd ([4]; label: 5' IRDye 800CW)	Kd ([5]; label: 5' IRDye 800CW)
B1	272 nM	242 nM	154 nM	105 nM	330 nM					
B2	321 nM	257 nM	166 nM	113 nM	8.1 nM					
B3						263 nM	574 nM	373 nM	315 nM	88.6 nM
B4						351 nM	412 nM	321 nM	205 nM	119 nM

— paper PMC8809517, “Cofactor-independent RNA editing by a synthetic S-type PPR protein”
